{"source": "paper PMC6468676", "about": "“The Protein Tyrosine Phosphatase H1 PTPH1 Supports Proliferation of Keratinocytes and is a Target of the Human Papillomavirus Type 8 E6 Oncogene” (Cells, 2019)", "target": "T1, FLAG-tagged HPV8E6 (E6 oncoprotein of human papillomavirus type 8), wild type (human papillomavirus type 8, UniProt P06428 1-155)", "T1 sequence": "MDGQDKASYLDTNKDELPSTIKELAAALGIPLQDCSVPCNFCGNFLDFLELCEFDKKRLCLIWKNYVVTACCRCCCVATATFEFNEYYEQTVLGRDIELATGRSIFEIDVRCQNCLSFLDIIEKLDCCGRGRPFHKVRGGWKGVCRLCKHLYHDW", "assay": "cell-based or functional assay", "data": [{"binder": "Myc-tagged protein tyrosine phosphatase H1 (PTPH1), full length (enzyme, UniProt P26045 1-913, looked up) MTSRLRALGGRINNIRTSELPKEKTRSEVICSIHFLDGVVQTFKVTKQDTGQVLLDMVHNHLGVTEKEYFGLQHDDDSVDSPRWLEASKAIRKQLKGGFPCTLHFRVRFFIPDPNTLQQEQTRHLYFLQLKMDICEGRLTCPLNSAVVLASYAVQSHFGDYNSSIHHPGYLSDSHFIPDQNEDFLTKVESLHEQHSGLKQSEAESCYINIARTLDFYGVELHSGRDLHNLDLMIGIASAGVAVYRKYICTSFYPWVNILKISFKRKKFFIHQRQKQAESREHIVAFNMLNYRSCKNLWKSCVEHHTFFQAKKLLPQEKNVLSQYWTMGSRNTKKSVNNQYCKKVIGGMVWNPAMRRSLSVEHLETKSLPSRSPPITPNWRSPRLRHEIRKPRHSSADNLANEMTYITETEDVFYTYKGSLAPQDSDSEVSQNRSPHQESLSENNPAQSYLTQKSSSSVSPSSNAPGSCSPDGVDQQLLDDFHRVTKGGSTEDASQYYCDKNDNGDSYLVLIRITPDEDGKFGFNLKGGVDQKMPLVVSRINPESPADTCIPKLNEGDQIVLINGRDISEHTHDQVVMFIKASRESHSRELALVIRRRAVRSFADFKSEDELNQLFPEAIFPMCPEGGDTLEGSMAQLKKGLESGTVLIQFEQLYRKKPGLAITFAKLPQNLDKNRYKDVLPYDTTRVLLQGNEDYINASYVNMEIPAANLVNKYIATQGPLPHTCAQFWQVVWDQKLSLIVMLTTLTERGRTKCHQYWPDPPDVMNHGGFHIQCQSEDCTIAYVSREMLVTNTQTGEEHTVTHLQYVAWPDHGVPDDSSDFLEFVNYVRSLRVDSEPVLVHCSAGIGRTGVLVTMETAMCLTERNLPIYPLDIVRKMRDQRAMMVQTSSQYKFVCEAILRVYEEGLVQMLDPS", "values": [{"measurement": "Myc-PTPH1 phosphatase activity (Malachite Green PTP assay on precipitated Myc-PTPH1, two phospho-tyrosine peptides) upon co-expression of HPV8E6 compared to the empty FLAG control vector", "result": 2.5, "unit": "fold"}]}]}
